Results on two molecules are retold here after patent US20130129701, “Methods and Compositions for Sequence Specific RNA Endonucleases” (published 2013).

For data set [1], the target named is T1, PUF-R6(SYxxR) purified (Homo sapiens, UniProt Q14671 Q14671:828-1176, N1043S/Q1047R).
T1 sequence: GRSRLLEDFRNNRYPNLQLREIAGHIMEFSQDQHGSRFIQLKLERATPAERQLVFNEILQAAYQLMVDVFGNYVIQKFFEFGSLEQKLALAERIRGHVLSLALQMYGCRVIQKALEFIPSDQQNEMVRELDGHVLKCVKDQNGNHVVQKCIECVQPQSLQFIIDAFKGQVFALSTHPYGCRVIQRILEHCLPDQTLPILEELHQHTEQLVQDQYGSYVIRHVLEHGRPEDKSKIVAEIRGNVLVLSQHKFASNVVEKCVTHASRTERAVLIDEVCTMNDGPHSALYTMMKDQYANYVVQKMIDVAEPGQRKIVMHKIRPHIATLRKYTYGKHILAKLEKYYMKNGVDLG
Description: structure; PDB 2yjy. On the procedure:
Crystals of PUF-R6(SYxxR) mutant and C3 RNA (5′-[…]) were grown by sitting drop vapor diffusion. RNA oligonucleotide was obtained from Dharmacon (Lafayette, Colo.). The protein-RNA complex was prepared by mixing a 1:1.1 molar ratio of purified protein (3.5 mg/ml) and RNA in a buffer containing 20 mM Tris-HCl, pH 7.5; 100 mM NaCl; and 1 mM DTT. One μl of complex solution was added to 1 μl of a well solution containing 30% PEG 3350, 0.2M ammonium tartrate dibasic, and 0.1M bis-Tris, pH 5.5. Crystals were flash frozen after adding an equal volume of cryoprotectant solution (32% PEG 3350, 20% ethylene glycol) to the drop. Diffraction data were collected at the SER-CAT beamline ID-22, Advanced Photon Source at wavelength 1.0 Å and −180° C. All data sets were indexed, integrated, and scaled with the HKL2000 suite (21). The structure was determined by molecular replacement using the structure of human Pumilio1 (PDB ID: 1M8Y) as a search model with PHASER (22). Two complexes are present in the asymmetric unit. Iterative model building was performed with COOT (23), and the resulting models were refined with PHENIX (24). All Phi-Psi angles are within allowable regions of the Ramachandran plot. The atomic coordinates and structure factors have been deposited in the Protein Data Bank (PDB ID: 2yjy).

The target of data set [2] is T1, PUF-R6(SYxxR) purified. Kind of data set: EMSA; 0.2 uM protein, 1 nM biotinylated RNA, 1 mM MgCl2, room temperature. On the procedure:
Protein concentration was determined by Bradford assay. RNAs were generated by in vitro transcription and purified on denaturing gels. 50 pmol of RNAs were labeled at the 3′ end with biotinylated cytidine bisphosphate using T4 RNA ligase following manufacturer's directions (Thermo Scientific Pierce RNA 3′ End Biotinylation Kit). In each sample, 20 fmol of labeled RNA (1 nM) and 4 pmol of proteins (0.2 μM) were incubated in binding buffer (10 mM HEPES, pH 7.3, 20 mM KCl, 1 mM MgCl₂, 1 mM DTT, and 0.1 g/L tRNA) for 1 hour at room temperature. The binding reactions were separated by electrophoresis on 6% nondenaturing PAGE run with 1×TBE at 4° C., transferred to nylon membranes, and crosslinked to the membrane by UV. Biotin-labeled RNA was detected by chemiluminescence using the Thermo Scientific LightShift Chemiluminescent RNA EMSA Kit following manufacturer's directions.
(A gel shift assay detects complexes by their altered migration in electrophoresis.)

Take AUUGCAUAUA (ssRNA) [C3 RNA crystallization 10-mer]: the binding result with PUF-R6(SYxxR) purified [1] was “binds”.
As to UGCAUAUA (ssRNA) [C3 RNA], the binding result in the data set with PUF-R6(SYxxR) purified [2] is on record as “binds”.
